Assay results reported in publication PMC5605996.

Target: GST fusion of the SET domain of Trithorax, GST-TrxSET (Drosophila)
Assay: pull-down; 1 μg GST-E(z)SET or GST-TrxSET immobilised on GSH-agarose, mixed 2 h at 4 °C with pre-cleared reticulocyte lysate holding 35S-Asx or its deletion fragments; washes with 0.6 M NaCl, pH 7.9; SDS-PAGE and autoradiography, densitometry relative to GST

GST fusion of the SET domain of Trithorax, GST-TrxSET (Drosophila), sequence (P20659 3583-3709): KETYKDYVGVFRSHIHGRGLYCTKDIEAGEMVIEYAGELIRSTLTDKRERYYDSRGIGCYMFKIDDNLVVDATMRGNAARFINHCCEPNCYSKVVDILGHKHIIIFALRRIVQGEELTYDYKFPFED

## full-length Additional sex combs (Asx), 35S-methionine-labelled, in vitro translated, A(1-1669) (from UniProt Q9V727 1-1669) (natural protein)
  fold weaker than the Asx-E(z)(SET) interaction: 5 fold
